Assay results: patent US20120039906A1

Molecular target: PD-1 Ig fusion protein (extracellular region of human PD-1, aa 1 to 152, fused to the Fc fragment of human IgG1) (human) (UniProt Q15116)
Assay: SPR (Biacore), 1:1 Langmuir model, PD-L2 Ig over immobilised PD-1 Ig; bivalent analyte, filing calls it most likely an avidity value

Chain of PD-1 Ig fusion protein (extracellular region of human PD-1, aa 1 to 152, fused to the Fc fragment of human IgG1) (human) (Q15116 other isoform, or with tags, fused parts or gaps limits assumed, form in doubt): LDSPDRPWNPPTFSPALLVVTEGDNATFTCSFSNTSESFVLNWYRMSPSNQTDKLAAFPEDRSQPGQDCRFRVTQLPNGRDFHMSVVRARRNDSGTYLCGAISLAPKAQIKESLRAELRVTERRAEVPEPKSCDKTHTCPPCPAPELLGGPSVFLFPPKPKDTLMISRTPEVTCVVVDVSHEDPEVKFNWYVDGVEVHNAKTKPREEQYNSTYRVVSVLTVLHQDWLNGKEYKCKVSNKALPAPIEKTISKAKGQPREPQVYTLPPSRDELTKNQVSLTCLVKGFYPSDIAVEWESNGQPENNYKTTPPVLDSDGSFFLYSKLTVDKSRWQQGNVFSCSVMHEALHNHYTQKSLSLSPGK

For “PD-L2 Ig fusion protein (extracellular portion of human PD-L2 fused to the Fc fragment of human IgG1) (from UniProt Q9BQ51 20-220) (Fc fusion)”, the Kd was 9.97 nM.
